The labels stand for the following.
B1: wild-type polypeptide FLLGNLSFV (SEQ ID NO:5) (peptide)
peptide: FLLGNLSFV
notes: Made by solid phase peptide synthesis, HPLC purity >90%
B2: mutant polypeptide's variant FMLGNLFFV (SEQ ID NO:3) (peptide)
peptide: FMLGNLFFV
notes: as for B1
B3: mutant polypeptide's variant FMLGNLFFL (SEQ ID NO:4) (peptide)
peptide: FMLGNLFFL
notes: as for B1
B4: mutant polypeptide FLLGNLFFV (SEQ ID NO:1) (peptide)
peptide: FLLGNLFFV
notes: Made by solid phase peptide synthesis, HPLC purity >90%; also called OR4K5 S67F mutant polypeptide
B5: mutant polypeptide's variant FLLGNLFFL (SEQ ID NO:2) (peptide)
peptide: FLLGNLFFL
notes: as for B1

This assay deals with T1, HLA-A0201 on the surface of T2 cells (human).
T1 construct: surface HLA-A*02:01 is detected with an anti-HLA-A*02:01 FITC monoclonal antibody after loading with peptide
As to the kind of experiment: T2 cell peptide loading assay, 100 uM peptide, anti-HLA-A*02:01 FITC, flow cytometry. On the technique in general: In flow cytometry, cells or beads pass a laser one at a time.
Procedure: After centrifugation at 200 g for 5 minutes for cell collection, the collected cells were washed with phosphate buffer saline (PBS) buffer twice, before incubated with anti-HLA-A*02:01 FITC monoclonal antibody at 4° C. for 30 minutes. The mean fluorescence intensity of cells was then detected and analyzed by the flow cytometry (BD FACSJazz™) and its software.
Regarding B1, the “FI (fluorescence index)” value was determined as 2.27 and the Mean fluorescence intensity is 724.
The matching figures for B2: 2.13 and 694.
On to B3, for which the “FI (fluorescence index)” value stood at 2.1 and the Mean fluorescence intensity was determined as 686.
For the molecule B4, the “FI (fluorescence index)” value worked out at 2.22 and the Mean fluorescence intensity was determined as 713.
In the case of B5, the “FI (fluorescence index)” value came to 2.17 and the Mean fluorescence intensity was 702.

Values taken from patent publication US20190263863A1 (GENOIMMUNE THERAPEUTICS, published 2019).
